Source: patent US8343503B2, “Contiguous overlapping peptides for treatment of birch pollen allergy” (Anergis S.A., priority 2009, dated 2013)
Read-outs that look alike come from different tables or passages of the source. No end group written: not given here.

Assays:
[1] = test system: birch pollen allergic volunteers; details: human, in vivo
Method: (§1) The allergenic response of the peptides was evaluated in vivo by SPT with each of the 5 peptides (AllerT1, AllerT2, AllerT3, AllerT4 and AllerT5) and with the 2 sets (AllerT1-3 and AllerT4-5) on all patients. For each peptide, a 20 μl drop was applied on the forearm at 3 different concentrations (10, 1 and 0.1 μM). […] The weal diameter was evaluated by taking the maximal diameter. SPT was considered positive when the weal diameter was 4 mm or more with an erythema (Hoffmann, A. et al., J Allergy Clin Immunol, 99(2):227-32 (1997). Reactions resulting in a weal diameter below 4 mm, while exceeding 2 mm, were also recorded and classified as “dubious”.

[2] = test system: birch pollen allergic volunteers; assay: Skin prick tests (SPT) of allergic patients; details: for Positive skin reactions (subjects) / Reactivity lower than defined threshold (dubious) (subjects): 20 volunteers
Method: as §1

[3] = test system: basophils (IgE-positive cells) in blood from a birch pollen allergic donor; assay: Basophil degranulation test (Basotest); type: cell-based, human; details: blood of birch pollen allergic donor; r Bet v 1 0.0025-25 nano-molar, COPs starting 10 fold higher; FIG. 4
Method: Basotest® (ORPEGEN Pharma Heidelberg, Germany) was used for the quantitative determination of in vitro basophile degranulation. Heparinized blood (100 μl) from a birch pollen allergic donor was first incubated with a stimulation buffer for 20 min at 37° C., and then with or without chemotactic peptide formylmethionylleucylphenylalanine (fMLP) as positive and negative controls respectively. Aliquots of blood were incubated in parallel with 100 μl allergen solution diluted in a saline solution for 20 min at 37° C. A dose response curve was performed with 25, 2.5, 0.25, 0.025 and 0.0025 nano-molar r Bet v 1 as well as starting 10 fold higher with AllerT mixes (AllerT1-T3, AllerT4-5 and AllerT6-8). The activation process was stopped by incubating the blood samples at 4° C. for 10 min. The samples were then incubated for 20 min at +4° C. with 20 μl of phycoerythrin (PE)-conjugated anti-IgE and fluorescein isothyocyanate (FITC)-conjugated anti-gp53 (CD63). Erythrocytes were subsequently removed by the addition of 2 ml of lysing solution (Becton-Dickinson). Cells were washed twice with PBS solution and resuspended in 200 μl of PBS solution and analyzed within 1 h by cytofluorimetry (FASCalibur, BectonDickinson). The basophile population was gated on the PE anti-IgE positive cells and the expression of gp53 (CD63) was analyzed on this population. […]

Bet v 1 specific IgE = assay: Competition ELISA: IgE binding of COPs compared to r Bet v 1; parameters: species or system human; details: for competition for IgE binding to coated r Bet v 1: serial dilutions starting at 10 μM pre-incubated with serum of birch pollen allergic subjects; for competition with Bet v 1 for IgE binding / residual IgE binding: sera from three allergic patients (data not shown)
Method: Recombinant Bet v 1 at 0.5 μg/ml (r Bet v 1 obtained from Biomay, Austria) was coated overnight on 96-well Nunc Maxisorp® immunoplates (Life Technologies, Basel, Switzerland). After blocking with 1% BSA, ten-fold dilutions of patient serum were added. […] The sera of three allergic patients were selected for high IgE level and clear signal over background and used to test for competition with the peptides. Serial dilutions of each COP, namely AllerT1, AllerT2, AllerT3, AllerT4, AllerT5, AllerT6, AllerT7 and AllerT8, or mixtures of AllerT1-3, AllerT4-5 and AllerT6-8, starting at 10 μM, were pre-incubated with the three selected sera overnight at 4° C. Sera were then incubated on r Bet v 1 coated 96-well plates and residual IgE binding was determined as described above. r Bet v 1 dilutions were used as control for inhibition, whereas BSA was used as control for possible non-specific inhibition.

[4] = dilution 1:1, weal 4 mm or more with erythema

| Positive skin reactions (subjects) [1] | IC50 (Bet v 1 specific IgE; depending on the serum of the donor, FIG. 1, read-out: concentration competing with IgE present in the sera (50% inhibition)) [µM] | competition for IgE binding to coated r Bet v 1 (Bet v 1 specific IgE; FIG. 1) | competition with Bet v 1 for IgE binding / residual IgE binding (Bet v 1 specific IgE) | Molecule | SPT result ([2]; birch pollen extract 100,000 SQ, recombinant Bet v 1 1 μM) | Positive skin reactions (subjects) [2, 4] | Positive skin reactions (subjects) ([2]; dilution 1:10) | Positive skin reactions (subjects) ([2]; dilution 1:100) | basophil degranulation (IgE-positive cells expressing CD63) [3] | Reactivity lower than defined threshold (dubious) (subjects) ([2]; dilution 1:1, weal below 4 mm) | Reactivity lower than defined threshold (dubious) (subjects) ([2]; dilution 1:10) | Reactivity lower than defined threshold (dubious) (subjects) ([2]; dilution 1:100) |
| --- | --- | --- | --- | --- | --- | --- | --- | --- | --- | --- | --- | --- |
| – | 0.0001 to 10 | – | – | r Bet v 1: Purified recombinant Bet v 1, birch pollen major allergen, purchased from BIOMAY; SEQ ID 9, Swissprot P15494 (protein) MGVFNYETETTSVIPAARLFKAFILDGDNLFPKVAPQAISSVENIEGNGGPGTIKKISFPEGFPFKYVKDRVDEVDHTNFKYNYSVIEGGPIGDTLEKISNEIKIVATPDGGSILKISNKYHTKGDHEVKAEQVKASKEMGETLLRAVESYLLAHSDAYN | positive in all volunteers | 20 | 16 | 2 | concentration dependent manner | – | – | – |
| – | – | comparable result | do not show such binding | AllerT4: SEQ ID NO: 4, aa 2-85 of SEQ ID 9 (Bet v 1) contiguous overlapping peptide (peptide) GVFNYETETTSVIPAARLFKAFILDGDNLFPKVAPQAISSVENIEGNGGPGTIKKISFPEGFPFKYVKDRVDEVDHTNFKYNYS | – | 0 | 0 | 0 | – | 0 | 0 | 1 |
| – | – | comparable result | do not show such binding | AllerT5: SEQ ID NO: 5, aa 65-160 of SEQ ID 9 (Bet v 1) contiguous overlapping peptide (peptide) FKYVKDRVDEVDHTNFKYNYSVIEGGPIGDTLEKISNEIKIVATPDGGSILKISNKYHTKGDHEVKAEQVKASKEMGETLLRAVESYLLAHSDAYN | – | 0 | 0 | 0 | – | 1 | 0 | 0 |

The next lines start with the molecule.

| Molecule | Positive skin reactions (subjects) [1] | IC50 (Bet v 1 specific IgE; depending on the serum of the donor, FIG. 1, read-out: concentration competing with IgE present in the sera (50% inhibition)) [µM] | competition for IgE binding to coated r Bet v 1 (Bet v 1 specific IgE; FIG. 1) | competition with Bet v 1 for IgE binding / residual IgE binding (Bet v 1 specific IgE) | SPT result ([2]; birch pollen extract 100,000 SQ, recombinant Bet v 1 1 μM) | Positive skin reactions (subjects) [2, 4] | Positive skin reactions (subjects) ([2]; dilution 1:10) | Positive skin reactions (subjects) ([2]; dilution 1:100) | basophil degranulation (IgE-positive cells expressing CD63) [3] | Reactivity lower than defined threshold (dubious) (subjects) ([2]; dilution 1:1, weal below 4 mm) | Reactivity lower than defined threshold (dubious) (subjects) ([2]; dilution 1:10) | Reactivity lower than defined threshold (dubious) (subjects) ([2]; dilution 1:100) |
| --- | --- | --- | --- | --- | --- | --- | --- | --- | --- | --- | --- | --- |
| CC[C@H](C)[C@H](NC(=O)[C@H](C)NC(=O)[C@H](CCC(N)=O)NC(=O)[C@@H]1CCCN1C(=O)[C@H](C)NC(=O)[C@@H](NC(=O)[C@H](CCCCN)NC(=O)[C@@H]1CCCN1C(=O)[C@H](Cc1ccccc1)NC(=O)[C@H](CC(C)C)NC(=O)[C@H](CC(N)=O)NC(=O)[C@H](CC(=O)O)NC(=O)CNC(=O)[C@H](CC(=O)O)NC(=O)[C@H](CC(C)C)NC(=O)[C@@H](NC(=O)[C@H](Cc1ccccc1)NC(=O)[C@H](C)NC(=O)[C@H](CCCCN)NC(=O)[C@H](Cc1ccccc1)NC(=O)[C@H](CC(C)C)NC(=O)[C@H](CCCNC(=N)N)NC(=O)[C@H](C)NC(=O)[C@H](C)NC(=O)[C@@H]1CCCN1C(=O)[C@@H](NC(=O)[C@@H](NC(=O)[C@H](CO)NC(=O)[C@@H](NC(=O)[C@@H](NC(=O)[C@H](CCC(=O)O)NC(=O)[C@@H](NC(=O)[C@H](CCC(=O)O)NC(=O)[C@H](Cc1ccc(O)cc1)NC(=O)[C@H](CC(N)=O)NC(=O)[C@H](Cc1ccccc1)NC(=O)[C@@H](NC(=O)CN)C(C)C)[C@@H](C)O)[C@@H](C)O)[C@@H](C)O)C(C)C)[C@@H](C)CC)[C@@H](C)CC)C(C)C)C(=O)N[C@@H](CO)C(=O)N[C@@H](CO)C(=O)N[C@H](C(=O)N[C@@H](CCC(=O)O)C(=O)N[C@@H](CC(N)=O)C(=O)N[C@H](C(=O)N[C@@H](CCC(=O)O)C(=O)NCC(=O)N[C@@H](CC(N)=O)C(=O)NCC(=O)NCC(=O)O)[C@@H](C)CC)C(C)C [AllerT1] | 0 | – | – | – | – | – | – | – | – | – | – | – |
| VATPDGGSILKISNKYHTKGDHEVKAEQVKASKEMGETLLRAVESYLLAHSDAYN [AllerT3] | 0 | – | – | – | – | – | – | – | – | – | – | – |
| AllerT2: SEQ ID NO: 2, aa 48-118 of SEQ ID 9 (Bet v 1) contiguous overlapping peptide (peptide) NGGPGTIKKISFPEGFPFKYVKDRVDEVDHTNFKYNYSVIEGGPIGDTLEKISNEIKIVATPDGGSILKIS | – | – | no competition | – | – | 0 | 0 | 0 | – | 0 | 0 | 0 |
